Measurements as given in the supplement of paper PMC7125110.
± gives the standard error. Variants at the floor of the assay were thinned out.

B1: glmS ribozyme (parent)
chain: AUAAAAGCGCCAGAACUACAGAAAUGUAGUUGACGAGGAGGAGGUUUAUCGAAUUUUCGGCGGAUGCCUCCAAA

Variants of: B1
Assay: self-cleavage kobs at 2500 uM GlcN6P; higher = faster cleavage; RNA array
Conditions: with glucosamine-6-phosphate
Procedure, shortened: (§1)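 Weighted Michaelis–Menten fits across concentrations supplied kcat and KM, based on kobs from one- or two-exponential decay fits to normalised per-tile medians. The data came from barcoded ribozyme variants transcribed in situ by E. coli RNA polymerase on sequenced MiSeq chips and tracked at 37 °C by a hybridised Cy3 probe. Glucosamine-6-phosphate (40 μM to 10 mM) in HEPES/KCl/Mg(OAc)2 buffer was flowed in.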

Variant | self-cleavage kobs at 2500 uM GlcN6P [s⁻¹]
G29U C34U U55G C67U | < 1e-05
G59U G66C | < 1e-05
U31G A48U A52C | < 1e-05
G32U G41C G59A | < 1e-05
G38A G62A C67G | < 1e-05
C8A G40C U47A A64U | < 1e-05
U45C G66U C70G | 7.12e-05 ± 3.1e-05
G32C A36C G51C A53C G66A | < 1e-05
A6G G9C C70G | < 1e-05
G7C U30G G32U A64G | < 1e-05
C8U U31A G43U U55A | < 1e-05
A12U G29U U30A U31A | 0.000126 ± 4.8e-05
G38C G60C G66U | < 1e-05
A14U G29U C50G C68U | 0.000156 ± 3.8e-05
C11G G40A A53U | < 1e-05
G7U G35U C50U | < 1e-05
G32U A53C U55A | 5.38e-05 ± 1.8e-05
C11G G37U A53C | < 1e-05
A39C U47A G66C | 0.000411 ± 8.5e-05
A15U C50U U54C G59C | < 1e-05
A6G A12C U55C C67U | < 1e-05

Variant | self-cleavage kobs at 2500 uM GlcN6P [s⁻¹]
G9C G32C C70A | < 1e-05
C11U A52C C68U C71G | 0.0003 ± 0.00014
C10A G29A A33G A48U | < 1e-05
A15G U45C U65G | 0.000117 ± 3.1e-05
A33G C34A U46A C61A | < 1e-05
G29A G35U A42G A52U | < 1e-05
A5U C10G A42U U57C C70A | < 1e-05
A36C G43C C50G C68A | < 1e-05
C11A G29U A33C G63C | < 1e-05
U31G G38U A42U C67U | < 1e-05
G32C A42G G59U | < 1e-05
C8U A14U G32U G41C C67U | < 1e-05
C16U A36U A39U A52U | < 1e-05
C16G U31A C34A | < 1e-05
G13A U49C C50U | < 1e-05
A39U U56C C67G | 3.66e-05 ± 9.2e-06
G7A G13A U30C C34U C70U | < 1e-05
A15U A48G G51U | < 1e-05
A48G C58G G63A C70A | 7.77e-05 ± 3.7e-05
A12U G38U U49A | < 1e-05
G29A G35U G41A | < 1e-05

Variant | self-cleavage kobs at 2500 uM GlcN6P [s⁻¹]
A39G U55G A64G | 0.00731 ± 0.0025
U31G U56A G66U | 7.04e-05 ± 1.3e-05
G9U G63C G66U C70A | < 1e-05
C16G G40U U69G | < 1e-05
A15C A42G U56A G60U | < 1e-05
C11U U54A C70G | 9.38e-05 ± 2.4e-05
U47G A48U U65G | 0.000213 ± 5.9e-05
G13A A33C C70U | < 1e-05
A6G A36C C58A | < 1e-05
C8G A52G U55G C67G C68U | 5.08e-05 ± 1.6e-05
G9A U54G G62A | < 1e-05
G7U G35U U54C G60A C67G C68A | 5.54e-05 ± 9.5e-06
G9A A39G A52C | < 1e-05
G13A U30A U45A U57G G60U U65C C68G | < 1e-05
A6U G32U U57G | < 1e-05
G7C G13U G43C G66U | < 1e-05
C10G A14C A48C C50U | < 1e-05
U65G C67G C68G | 3.55e-05 ± 1.4e-05
G9U A14U A42C | < 1e-05
A15G G32A G35U A52C | < 1e-05
A6C C8G G66A C70U | < 1e-05

Variant | self-cleavage kobs at 2500 uM GlcN6P [s⁻¹]
G29U C58G C71A | 0.000118 ± 3.2e-05
G35C U46G U56A | < 1e-05
U31C G37A G59A C61U G66A | < 1e-05
C10A G60C G63C C67A C68G C70G C71U | 4.85e-05 ± 2.2e-05
A6C A48G A52G | < 1e-05
G7A A39C G59C C70U | < 1e-05
G38U A39G C58U G59U | < 1e-05
A42G A52G C67A | 0.000326 ± 8.1e-05
C19A C34U U45A A48U | < 1e-05
U55G C70U C71G | 7.27e-05 ± 1.7e-05
G35C A39U G59A | < 1e-05
A14U U47C C61G | < 1e-05
U54A G63A C70U | < 1e-05
U31G G32C G66A | 0.000109 ± 2.1e-05
A12C A33G C34U C50A A64U C70G | 0.00011 ± 4.2e-05
G32C A36G U47C | < 1e-05
A6C A14G G35A U57A G66C C68U | < 1e-05
A6U G44A A48U G63A U65C | < 1e-05
A48U C50A U65G | < 1e-05
U30G G38A U46G | < 1e-05

Variants of: B1
Assay: self-cleavage kobs at 10000 uM GlcN6P; higher = faster cleavage; RNA array
Conditions: with glucosamine-6-phosphate
Procedure, shortened: as §1

Variant | self-cleavage kobs at 10000 uM GlcN6P [s⁻¹]
A12U G29U U30A U31A | 0.000361 ± 0.00013
C8G A52G U55G C67G C68U | 3.18e-05 ± 1.4e-05
U31C G37A G59A C61U G66A | < 1e-05
U55G C70U C71G | 0.000142 ± 3.8e-05
